According to patent US20190071467A1:

Legend:
[1] = molecular target: VDAC1 on intact mitochondria purified from NSC34 cells (mouse (NSC34 cell line)) (UniProt Q60932); experiment: competition with SOD1-G93A on intact NSC34 mitochondria, fractionation, immunoblot
[2] = molecular target: human VDAC1, recombinant, C-terminal His-tag, refolded in LDAO (human) (UniProt P21796); experiment: competition pull-down on VDAC1-coated magnetic beads (30 uM VDAC1, 6.5 uM SOD1-G93A), anti-SOD1 immunoblot
Sequence of UniProt P21796 (P21796 other isoform, or with tags, fused parts or gaps limits assumed): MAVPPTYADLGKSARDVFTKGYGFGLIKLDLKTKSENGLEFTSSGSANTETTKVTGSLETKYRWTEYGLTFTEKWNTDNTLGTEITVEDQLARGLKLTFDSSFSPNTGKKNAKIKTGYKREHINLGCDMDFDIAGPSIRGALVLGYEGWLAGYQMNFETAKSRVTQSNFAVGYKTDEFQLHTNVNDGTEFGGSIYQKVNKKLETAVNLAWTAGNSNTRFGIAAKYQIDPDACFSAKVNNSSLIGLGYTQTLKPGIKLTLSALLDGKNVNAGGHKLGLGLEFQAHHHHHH

Sequence of UniProt Q60932 (Q60932 whole entry): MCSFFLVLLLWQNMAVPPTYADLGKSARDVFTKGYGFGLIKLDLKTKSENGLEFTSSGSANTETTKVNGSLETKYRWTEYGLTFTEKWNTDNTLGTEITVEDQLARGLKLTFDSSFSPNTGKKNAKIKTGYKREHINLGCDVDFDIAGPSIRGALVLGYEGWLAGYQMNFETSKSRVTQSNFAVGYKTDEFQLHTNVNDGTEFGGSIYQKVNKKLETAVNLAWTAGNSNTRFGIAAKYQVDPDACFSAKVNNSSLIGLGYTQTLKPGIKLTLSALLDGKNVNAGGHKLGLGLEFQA

- percent decrease of SOD1-G93A bound to mitochondria at 60 µM NHK1 [1]: 90%
- percent reduction of SOD1-G93A bound to VDAC1 at 10 µM NHK1 [2]: 40%
- percent reduction of SOD1-G93A bound to VDAC1 at 25 µM NHK1 [2]: 80%
Binder: IAAQLLAYYFT [synthetic peptide NHK1]
